One block for each binder: values may come before it.
Key:
[1] = target: Human IgG (Sigma-Aldrich Corporation) (human); assay: Biacore SPR; protein on NTA chip, human IgG injected
[2] = target: Human IgG (Sigma-Aldrich Corporation) (human); assay: Biacore SPR; protein on NTA chip, human IgG injected; reference repeated from Table 2
[3] = target: Human IgG (Sigma-Aldrich Corporation) (human); assay: human IgG captured on the protein-immobilized Amino-Cellulofine carrier, released with 0.1 M acetic acid, A280
[4] = target: Human IgG (Sigma-Aldrich Corporation) (human); assay: Biacore SPR; protein on NTA chip, human IgG injected; reference repeated from Table 3

Kd [1]: 0.384 nM | koff [1]: 0.000154 s⁻¹ | kon [1]: 401000 M⁻¹ s⁻¹ | Kd [2]: 0.384 nM | koff [2]: 0.000154 s⁻¹ | kon [2]: 401000 M⁻¹ s⁻¹
B2: pPG (SEQ ID NO: 2) (designed binder)
chain: AYRLILNGRTLRGETTTEAVDAATAERVFRQYANDNGVDGEWTYDDATRTFTVTERPEVIDASELTPAVTGGGGCADDDDDDHHHHHH

Amount of bound human IgG (mg/ml carrier) [3]: 3
B4: Immobilization carrier SEQ ID NO: 6 (←SEQ ID NO: 3) (designed binder)
chain: ATIRANLIYADGRTQTAEFRGTFEEATAEAYRYADLLARENGRYTVDVADRGYTLNIRFAGGGGG
modifications: carboxy terminus bound to a primary amino group on Amino-Cellulofine via an amide bond

Further lines, the binder ahead of its results:

B1: Protein expressed from pGG3T (SEQ ID NO: 25 repeated three times, n = 3) (designed binder)
chain: AYRLILNGRTLRGETTTEAVDAATAERVFRQYANDNGVDGEWTYDDATRTFTVTERPEVIDASELTPAVTPGAYRLILNGRTLRGETTTEAVDAATAERVFRQYANDNGVDGEWTYDDATRTFTVTERPEVIDASELTPAVTPGAYRLILNGRTLRGETTTEAVDAATAERVFRQYANDNGVDGEWTYDDATRTFTVTERPEVIDASELTPAVTPGGGGGCADDDDDDHHHHHH
Kd [1]: 0.068 nM | koff [1]: 7.63e-05 s⁻¹ | kon [1]: 1.12e+06 M⁻¹ s⁻¹

B3: Protein expressed from pLL3T (SEQ ID NO: 26 repeated three times, n = 3) (designed binder)
chain: ATIRANLIYADGRTQTAEFRGTFEEATAEAYRYADLLARENGRYTVDVADRGYTLNIRFAPGATIRANLIYADGRTQTAEFRGTFEEATAEAYRYADLLARENGRYTVDVADRGYTLNIRFAPGATIRANLIYADGRTQTAEFRGTFEEATAEAYRYADLLARENGRYTVDVADRGYTLNIRFAPGGGGGCADDDDDDHHHHHH
Kd [1]: 0.788 nM | koff [1]: 0.000237 s⁻¹ | kon [1]: 301000 M⁻¹ s⁻¹

B5: pPL (SEQ ID NO: 3) (designed binder)
chain: ATIRANLIYADGRTQTAEFRGTFEEATAEAYRYADLLARENGRYTVDVADRGYTLNIRFAGGGGGCADDDDDDHHHHHH
Kd [1]: 2.06 nM | koff [1]: 0.000312 s⁻¹ | kon [1]: 151000 M⁻¹ s⁻¹ | Kd [4]: 2.06 nM | koff [4]: 0.000312 s⁻¹ | kon [4]: 151000 M⁻¹ s⁻¹

B6: Immobilization carrier SEQ ID NO: 5 (←SEQ ID NO: 2) (designed binder)
chain: AYRLILNGRTLRGETTTEAVDAATAERVFRQYANDNGVDGEWTYDDATRTFTVTERPEVIDASELTPAVTGGGG
modifications: carboxy terminus bound to a primary amino group on Amino-Cellulofine via an amide bond
Amount of bound human IgG (mg/ml carrier) [3]: 10

Source: US20090299035A1
